Changes are numbered by the printed parent chain.

These results are taken from patent publication US20220133913A1 (KOREA BASIC SCIENCE INSTITUTE, published 2022).

B1: single-domain antibody VHH-25 containing lysin and His6 tags (VHH)
VHH: EVQLVESGGGSVQAGGSLRLSCVVSGYTCSVYDMIWYRQPPGKEREFVSLINSNGRTTYADSVKGRFTISQNNAKNTVYLQMNSLKPEDTAMYYCHAACYSPSRLNYWGQGTQVTVSS
notes: also called Nanobody #25-Lys; VHH-25-K1; not shown: C-terminal lysine tag and His6 tag with any linker
B2: VHH-16 (VHH)
VHH: DVQLVESGGGSVQPGGSLRLSCAASGYTVENSCMAWFRQAPGKEREVVATIVTNNATGTFYADSVKGRFTVSQDNAKNTLNLQMNSLEPEDTAMYYCAADTKWIVCSRGYRYTPNWANQFKYWGQGTQVTVSS
notes: also called clone 16
B3: VHH-20 (VHH)
VHH: B2 VHH with E30D, G58S, Q73H, S86T, Q119H, K121N, Q128L
notes: also called clone 20
B4: VHH-25 (VHH)
VHH: B1 VHH
notes: also called clone 25
B5: VHH-22 (VHH)
VHH: B1 VHH with E1Q, Q113L
notes: also called clone 22
B6: VHH-23 (VHH)
VHH: HVQLVESGGGSVQTGGSLRLSCAASGYTSSTVYMAWFRQTPGKQREGVAAIYTGGGPTYYADSVKGRFTISQDNAKNTVYLQMNTLKPEDTAMYYCAADRYVYRLVTNWYRPSFYTYWGQGTQVTVSS
notes: also called clone 23
B7: VHH-12 (VHH)
VHH: EVQLVESGGGSVQPGESLRLSCVASGYTVSSSCMAWFRQAPGKEREVVATIVVTSDTTSTFYADSVKGRFTISPDNAKNTLNLQMNSLEPSDTAMYYCAADRKWNVCSRGYRYTPNWANQFTFWGQGTQVTVSS
notes: also called clone 12
B8: VHH-17 (VHH)
VHH: B7 VHH with E1D, Q129L
notes: also called clone 17
B9: VHH-11 (VHH)
VHH: B7 VHH with E1D, Q129L
notes: also called clone 11
B10: VHH-13 (VHH)
VHH: B7 VHH with E1H
notes: also called clone 13
B11: VHH-15 (VHH)
VHH: B7 VHH with S91P
notes: also called clone 15

T1 sequence (P06756 31-992 limits assumed, chain 1 of 2): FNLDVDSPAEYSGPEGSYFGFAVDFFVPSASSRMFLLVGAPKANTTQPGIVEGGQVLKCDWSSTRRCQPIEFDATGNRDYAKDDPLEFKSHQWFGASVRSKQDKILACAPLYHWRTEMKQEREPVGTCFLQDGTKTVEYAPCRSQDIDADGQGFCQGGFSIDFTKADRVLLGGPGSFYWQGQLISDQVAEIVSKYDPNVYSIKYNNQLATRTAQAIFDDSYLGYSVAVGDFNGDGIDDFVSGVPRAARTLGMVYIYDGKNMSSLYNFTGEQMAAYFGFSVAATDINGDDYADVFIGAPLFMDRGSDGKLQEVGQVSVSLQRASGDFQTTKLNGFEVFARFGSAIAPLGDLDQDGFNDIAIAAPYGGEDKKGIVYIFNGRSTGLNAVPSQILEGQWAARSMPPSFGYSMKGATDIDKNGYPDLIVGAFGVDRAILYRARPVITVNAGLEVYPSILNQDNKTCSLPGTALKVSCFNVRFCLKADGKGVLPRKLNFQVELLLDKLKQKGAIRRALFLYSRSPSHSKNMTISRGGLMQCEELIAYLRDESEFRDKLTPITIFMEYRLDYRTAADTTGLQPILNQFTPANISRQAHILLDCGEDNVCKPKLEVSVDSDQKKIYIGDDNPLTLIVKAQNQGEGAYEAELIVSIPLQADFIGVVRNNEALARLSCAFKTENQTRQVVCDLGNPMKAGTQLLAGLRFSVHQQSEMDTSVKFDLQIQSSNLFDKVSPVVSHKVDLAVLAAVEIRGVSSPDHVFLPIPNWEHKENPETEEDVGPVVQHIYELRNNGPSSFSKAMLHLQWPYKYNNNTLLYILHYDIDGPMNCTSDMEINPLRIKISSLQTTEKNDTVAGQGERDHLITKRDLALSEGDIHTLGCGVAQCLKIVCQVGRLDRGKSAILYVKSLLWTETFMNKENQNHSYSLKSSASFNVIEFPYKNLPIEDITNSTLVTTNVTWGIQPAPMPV
T1 sequence (P05106 27-718 limits assumed, chain 2 of 2): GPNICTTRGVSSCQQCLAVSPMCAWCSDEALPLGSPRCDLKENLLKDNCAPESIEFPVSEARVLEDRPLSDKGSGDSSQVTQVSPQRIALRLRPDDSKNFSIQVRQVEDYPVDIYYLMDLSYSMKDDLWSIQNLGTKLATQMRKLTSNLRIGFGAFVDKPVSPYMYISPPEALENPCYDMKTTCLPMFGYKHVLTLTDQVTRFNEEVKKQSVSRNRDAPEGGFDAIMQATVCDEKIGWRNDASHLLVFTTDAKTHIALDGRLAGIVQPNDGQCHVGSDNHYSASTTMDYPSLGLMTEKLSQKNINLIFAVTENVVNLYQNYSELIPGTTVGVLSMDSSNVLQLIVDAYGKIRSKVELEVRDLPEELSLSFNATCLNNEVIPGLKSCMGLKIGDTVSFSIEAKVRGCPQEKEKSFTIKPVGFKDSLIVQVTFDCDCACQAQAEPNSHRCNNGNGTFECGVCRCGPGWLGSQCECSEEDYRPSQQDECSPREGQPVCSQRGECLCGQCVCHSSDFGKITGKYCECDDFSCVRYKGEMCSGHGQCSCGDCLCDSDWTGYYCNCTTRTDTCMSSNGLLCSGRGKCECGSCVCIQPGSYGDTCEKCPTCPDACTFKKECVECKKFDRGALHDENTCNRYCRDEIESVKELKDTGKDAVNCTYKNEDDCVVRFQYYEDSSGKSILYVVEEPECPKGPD

The first test addresses T1, human αvβ3 integrin ITGAVB3 (human, UniProt P06756 31-992; P05106 27-718, limits assumed).
T1 construct: Recombinant heterodimer used as immunogen, ELISA coating and SPR ligand; also called A5B3; A5b3
In words: SPR, αvβ3 integrin immobilised on CMDH chip, nanobody as analyte. Here is the method: (§1) Specifically, a CMDH chip (Carboxymethyl Dextran Hydrogel Surface Sensor Chip, Reichert Technologies) coated with Dextran was mounted on an SPR equipment (Reichert SR7500DC system) to perform immobilization of αᵥβ₃ integrin antigen. Then, an analysis of the affinity of the selected antibody based on the concentration was performed.
What is called Kd is the concentration at which binding is half-saturated. A word on the koff: it is a measure of how fast the partners let go of each other. In general, kon refers to the rate constant with which the complex forms. B1: the dissociation constant Kd is 4.64 nM, the koff worked out at 0.000802 s⁻¹ and the on-rate (kon) was found to be 173000 M⁻¹ s⁻¹.

The target of another test is T1, human αvβ3 integrin ITGAVB3. Nature of the test: ELISA of soluble VHH, induced at 30 C; coating not given. In general terms: In an ELISA, binding on a coated surface is turned into a signal by an enzyme label.
As to B2, the OD490 amounted to 2.02.
Still for that read-out and setting: next, B3: 0.108; B4: 1.05.
The same measure, in the same setting: under B5 stands 1.21.
The same measure, in the same setting: next, B6: 0.141; B7: 1.84; B8: 0.118.
As to B9, the OD490 was 0.148.
B10 showed an OD490 of 0.161.
On the same count and under the same terms, under B11 stands 0.146.

The next test has the same target. In words: phage ELISA, coated ITGAVB3, anti-M13-HRP, 490 nm; helper phage control.
Molecule M13KO7 helper phage came in with an OD490 of 0.09.

The target is the same in the next test. Nature of the test: SPR, αvβ3 integrin immobilised on a CMDH chip (Reichert SR7500DC), nanobody as analyte; fitted kd from the table box in the panel; the box prints no unit, s^-1 is from the head of Table 8, where the text prints this cell as 8.02(2)e4. On the procedure:
as §1
On to B1, for which the koff is 0.000802 s⁻¹.

The target is the same in another test. In words: phage ELISA, coated ITGAVB3, anti-M13-HRP, 490 nm. Here is the method: Further, in order to perform phage ELISA, 2.5 μg/mL to […] of a target protein and a control protein were coated at 4 degrees C. using a coating buffer, and the wells were washed 3 times with 200 μL washing buffer per well. The wells were blocked with 200 μL PBS-M for two hours at room temperature. The blocking buffer was removed and the plate was washed 6 times with the washing solution. Thereafter, 100 μL of phage solution was added to the washing buffer per well and incubation was executed at room temperature for 1 to 2 hours. Then, washing was performed 6 times with washing buffer. HRP-binding anti-M13 antibody (GE healthcare) was diluted with 1:5,000 blocking buffer. 100 μL of diluted conjugate was added onto each well, and incubation was performed at room temperature for 1 hour, and washing was carried out 6 times with washing buffer. The HRP substrate solution was prepared as follows: A stock solution of OPD was prepared by dissolving 22 mg OPD (Sigma) in 100 mL of […] sodium citrate (pH 4.0), and 36 μL 30% H₂O₂ was added to 21 mL of OPL stock solution immediately before the detection step. 100 μL of substrate solution was added to each well and incubation was performed for 30 minutes at room temperature. Plates were analyzed using a micro plate reader set at 490 nm.
For the molecule B2, the OD490 was determined as 2.07.
The same measure, in the same setting: next, B3: 1.98; B4: 2.03; B5: 2.04.
Take B6: the OD490 is 2.04.
Still for that read-out and setting: next, B7: 2.06; B8: 1.81; B9: 2.07.
As for B10, the OD490 was determined as 2.01.
The same measure, in the same setting: under B11 stands 1.97.

The target is the same in a further test. In words: ELISA of soluble VHH (TG1 lysate), induced at 37 C, coated ITGAVB3.
With B2, the OD490 worked out at 1.68.
The same measure, in the same setting: under B3 stands 0.144.
For the molecule B4, the OD490 was 2.03.
Still for that read-out and setting: next, B5: 1.98; B6: 0.16.
B7 displayed an OD490 of 1.93.
B8 showed an OD490 of 0.191.
B9 yielded an OD490 of 0.64.
B10: the OD490 turned out to be 2.
Molecule B11 came in with an OD490 of 0.132.

The target is the same in another test. In words: ELISA of soluble VHH (TG1 lysate), induced at 30 C, coated ITGAVB3.
In the case of B2, the OD490 is 1.75.
Still for that read-out and setting: next, B3: 0.129; B4: 2.01; B5: 1.98.
Same read-out and setting: under B6 stands 0.179; under B7, 1.87.
Molecule B8 yielded an OD490 of 0.243.
Same read-out and setting: next, B9: 0.334; B10: 2; B11: 0.179.

The target is the same in a further test. In words: ELISA of soluble VHH, induced at 37 C; coating not given.
The molecule B2 yielded an OD490 of 1.02.
Take B3: the OD490 worked out at 0.111.
The same measure, in the same setting: next, B4: 0.193; B5: 0.386; B6: 0.113.
In turn, B7 yielded an OD490 of 1.23.
B8 yielded an OD490 of 0.125.
On the same count and under the same terms, under B9 stands 0.119; under B10, 0.187.
The same measure, in the same setting: next, B11: 0.121.
